For this series, the system named is Escherichia coli TOP10. In words: shrunken log2 fold change of peptide-encoding DNA abundance (4.5 h post-induction vs induction); higher = less antimicrobial activity (less host growth inhibition). The note with it: time post-induction: 4.5 h; library: site-saturation at positions 5, 18, 19, 20.
For the sequence RRIRPRPPRLPRPRPRPMKKPRP, the “shrunken log2 fold change” value was -0.0723.
Consider RRIRPRPPRLPRPRPRPKMAPRP, for which the “shrunken log2 fold change” value was -0.0597.
In the case of RRIRIRPPRLPRPRPRPRVEPRP, the “shrunken log2 fold change” value was -0.0648.
Regarding RRIRNRPPRLPRPRPRPYSGPRP, the “shrunken log2 fold change” value came to 0.00884.
As to RRIRARPPRLPRPRPRPGLVPRP, the “shrunken log2 fold change” value came out at 0.542.
As to RRIRERPPRLPRPRPRPKMYPRP, the “shrunken log2 fold change” value was -0.898.
Turning to RRIRKRPPRLPRPRPRPKPKPRP, the “shrunken log2 fold change” value was 0.464.
Next, RRIRMRPPRLPRPRPRPECTPRP: 2.91; RRIRNRPPRLPRPRPRPALIPRP: 0.0102; RRIRHRPPRLPRPRPRPEHAPRP: -0.0423.
With RRIRARPPRLPRPRPRPGNQPRP, the “shrunken log2 fold change” value was -0.0242.
With RRIRERPPRLPRPRPRPTSFPRP, the “shrunken log2 fold change” value was 0.0302.
For RRIRRRPPRLPRPRPRPLGQPRP, the “shrunken log2 fold change” value came out at 0.00384.
Regarding RRIRHRPPRLPRPRPRPSRVPRP, the “shrunken log2 fold change” value was -0.0634.
Regarding RRIRHRPPRLPRPRPRPCALPRP, the “shrunken log2 fold change” value is -0.339.
RRIRNRPPRLPRPRPRPRQTPRP: the “shrunken log2 fold change” value amounted to 0.112.
In the case of RRIRARPPRLPRPRPRPMYGPRP, the “shrunken log2 fold change” value worked out at 0.22.
Take RRIRKRPPRLPRPRPRPYIHPRP: the “shrunken log2 fold change” value is -0.227.
As to RRIRLRPPRLPRPRPRPDIQPRP, the “shrunken log2 fold change” value was 0.0103.
With RRIRSRPPRLPRPRPRPDEQPRP, the “shrunken log2 fold change” value came to 0.202.
In the case of RRIRWRPPRLPRPRPRPQHSPRP, the “shrunken log2 fold change” value was -0.186.
In the case of RRIRDRPPRLPRPRPRPVQSPRP, the “shrunken log2 fold change” value was -0.0116.
Regarding RRIRFRPPRLPRPRPRPSASPRP, the “shrunken log2 fold change” value stood at 0.0552.
Turning to RRIRQRPPRLPRPRPRPCCYPRP, the “shrunken log2 fold change” value is -0.0451.
In the case of RRIRGRPPRLPRPRPRPGVTPRP it was 0.721; in that of RRIRIRPPRLPRPRPRPGRIPRP, 0.0431.
With RRIRIRPPRLPRPRPRPYFEPRP, the “shrunken log2 fold change” value was -1.2.
Consider RRIRIRPPRLPRPRPRPCPEPRP, for which the “shrunken log2 fold change” value is -0.644.
In the case of RRIRGRPPRLPRPRPRPQFTPRP, the “shrunken log2 fold change” value worked out at 0.104.
For the sequence RRIRFRPPRLPRPRPRPKTHPRP, the “shrunken log2 fold change” value was -0.0208.
RRIRGRPPRLPRPRPRPRSNPRP: the “shrunken log2 fold change” value worked out at 0.363.
In the case of RRIRKRPPRLPRPRPRPWECPRP it was 0.033; in that of RRIRCRPPRLPRPRPRPYAKPRP, -0.671; in that of RRIRARPPRLPRPRPRPKQIPRP, 0.146.
Consider RRIRGRPPRLPRPRPRPCSTPRP, for which the “shrunken log2 fold change” value is 1.14.
RRIRQRPPRLPRPRPRPGNAPRP: the “shrunken log2 fold change” value amounted to 0.322.
Regarding RRIRWRPPRLPRPRPRPRLYPRP, the “shrunken log2 fold change” value was 0.245.
Turning to RRIRWRPPRLPRPRPRPRYQPRP, the “shrunken log2 fold change” value was -0.188.
As for RRIRFRPPRLPRPRPRPFTQPRP, the “shrunken log2 fold change” value stood at 0.0192.
Regarding RRIRNRPPRLPRPRPRPWHLPRP, the “shrunken log2 fold change” value was -0.0913.
For the sequence RRIRCRPPRLPRPRPRPPRGPRP, the “shrunken log2 fold change” value was found to be 0.67.
As for RRIRERPPRLPRPRPRPHSPPRP, the “shrunken log2 fold change” value is -0.372.
RRIRTRPPRLPRPRPRPDIFPRP: the “shrunken log2 fold change” value is -0.234.
In the case of RRIRDRPPRLPRPRPRPTQAPRP, the “shrunken log2 fold change” value is 0.017.
Turning to RRIRMRPPRLPRPRPRPQDKPRP, the “shrunken log2 fold change” value came out at 0.132.
In the case of RRIRKRPPRLPRPRPRPKPPPRP it was 0.76; in that of RRIRNRPPRLPRPRPRPCCLPRP, -0.219.
Consider RRIRYRPPRLPRPRPRPIHYPRP, for which the “shrunken log2 fold change” value is -0.655.
Turning to RRIRCRPPRLPRPRPRPRFFPRP, the “shrunken log2 fold change” value worked out at 0.191.
In the case of RRIRSRPPRLPRPRPRPHSKPRP, the “shrunken log2 fold change” value is -0.486.
For RRIRGRPPRLPRPRPRPIGQPRP, the “shrunken log2 fold change” value stood at 0.0805.
In the case of RRIRIRPPRLPRPRPRPDKFPRP it was -0.565.
As for RRIRVRPPRLPRPRPRPQKVPRP, the “shrunken log2 fold change” value was -0.355.
RRIRFRPPRLPRPRPRPQYMPRP: the “shrunken log2 fold change” value is -1.77.
Take RRIRNRPPRLPRPRPRPTWMPRP: the “shrunken log2 fold change” value is -0.155.
Take RRIRWRPPRLPRPRPRPDWLPRP: the “shrunken log2 fold change” value was 0.111.
RRIRYRPPRLPRPRPRPTMNPRP: the “shrunken log2 fold change” value is -0.446.
RRIRRRPPRLPRPRPRPHFMPRP: the “shrunken log2 fold change” value is -0.141.
Turning to RRIRARPPRLPRPRPRPGGRPRP, the “shrunken log2 fold change” value stood at 0.525.
Next, RRIRPRPPRLPRPRPRPNLMPRP: -0.0727; RRIRNRPPRLPRPRPRPKVTPRP: -0.0149.
Consider RRIRLRPPRLPRPRPRPTVVPRP, for which the “shrunken log2 fold change” value is -0.0551.
Next, RRIRIRPPRLPRPRPRPHQAPRP: -0.0342.

Source of the values: the supplement of paper PMC9112550, “Optimization of the antimicrobial peptide Bac7 by deep mutational scanning” (BMC Biology, 2022).
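Further: peptides expressed intracellularly from a pBAD plasmid library in pooled LB shake-flask culture, induced with 0.3% L-arabinose, DNA abundance read by NGS, three biological replicates, DESeq2 with apeglm shrinkage.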
